From patent CN115746140A (SHENZHEN KANGTI BIOMEDICAL TECH CO LTD, dated 2023)

Target: T1, PCSK9蛋白 (Proprotein convertase subtilisin kexin type 9) (UniProt Q8NBP7 31-692, limits assumed)
T1 construct: also called PCSK9抗原
Test: SPR; immobilised partner and format not stated

T1 sequence (Q8NBP7 31-692 limits assumed): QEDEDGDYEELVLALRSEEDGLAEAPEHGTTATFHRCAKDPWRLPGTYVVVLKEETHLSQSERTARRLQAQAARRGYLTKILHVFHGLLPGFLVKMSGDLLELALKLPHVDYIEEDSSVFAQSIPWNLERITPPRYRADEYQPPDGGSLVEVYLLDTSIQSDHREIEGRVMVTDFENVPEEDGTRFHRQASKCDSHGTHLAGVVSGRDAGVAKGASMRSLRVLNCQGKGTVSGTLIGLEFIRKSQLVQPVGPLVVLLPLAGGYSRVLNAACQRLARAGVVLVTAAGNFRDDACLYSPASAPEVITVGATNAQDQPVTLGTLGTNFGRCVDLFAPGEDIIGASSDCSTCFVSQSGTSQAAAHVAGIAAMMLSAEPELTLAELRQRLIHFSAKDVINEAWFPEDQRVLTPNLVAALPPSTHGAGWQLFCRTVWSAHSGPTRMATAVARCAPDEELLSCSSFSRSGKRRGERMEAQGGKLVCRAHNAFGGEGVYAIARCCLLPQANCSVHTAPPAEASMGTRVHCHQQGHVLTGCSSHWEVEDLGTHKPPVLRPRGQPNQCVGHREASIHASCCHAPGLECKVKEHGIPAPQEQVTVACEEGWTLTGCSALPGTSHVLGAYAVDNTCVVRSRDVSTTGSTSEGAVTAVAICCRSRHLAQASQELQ

B1: 纳米抗体P2-11D (anti-PCSK9 nanobody P2-11D) (VHH)
VHH: DVQLQESGGGLVQPGGSLRLSCAASGFTFRAYDMGWYRQAPGKQRDLVAVISSSGGTPNYADSVKDRFTISRDNDKNTVYLQMNSLKSEDTALYYCNARWESSAYERDYWGRGTQVTVSS
notes: Monovalent alpaca VHH, expressed from pET22b in E. coli BL21 and purified on Ni resin and by size exclusion; also called 抗PCSK9单域重链抗体; 抗PCSK9的纳米抗体
  Kd: 70 nM
  koff: 0.00921 s⁻¹
  kon: 130000 M⁻¹ s⁻¹
